Here are results for three molecules from patent US20030078221, “High affinity nucleic acid ligands of complement system proteins” (Gilead Sciences, Inc., published 2003).

Series [1] has as its target T1, Complement C5 (Homo sapiens, UniProt P01031;P01031 P01031:19-673,P01031:678-1676). Briefly: filter; Kd not given. Particulars: tags: Quidel.
For a further series, the target named is Complement C1q (UniProt P02745;P02746;P02747 P02745:23-245,P02746:28-253,P02747:29-245). Briefly: filter; MgPBS 37C; text states range 0.29-3.9 nM for best ligands. Particulars: tags: Quidel; chain copies: 6. Here is the method: (§1) Individual cloned DNA was T7 transcribed with α-[³²P]-ATP and the full length [³²P]-2′-NH₂-RNA or 2′-F-RNA was gel-purified (as above). RNA was suspended at approximately 5,000 cpm per 30 μL sample (<10 pM), and aliquots were incubated with various concentrations of C1q, C3 or C5 in MgPBS for 10 minutes at 37° C. Samples were then filtered through nitrocellulose, the filters washed with buffer and dried under an infrared lamp, and counted with addition of scintillation fluid (Ecoscint A, National Diagnostics, Atlanta, Ga.). A background sample of RNA alone was run in parallel. […] Filters were washed and counted.
Complement C1q, sequence (P02745 23-245, chain 1 of 3): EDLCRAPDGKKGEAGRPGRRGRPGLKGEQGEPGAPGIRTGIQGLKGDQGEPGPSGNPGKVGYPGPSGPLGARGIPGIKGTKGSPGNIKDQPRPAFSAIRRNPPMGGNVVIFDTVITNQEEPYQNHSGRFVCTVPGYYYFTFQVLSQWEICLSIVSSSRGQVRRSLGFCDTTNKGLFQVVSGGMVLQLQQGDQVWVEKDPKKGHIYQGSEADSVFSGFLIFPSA
Complement C1q, sequence (P02746 28-253, chain 2 of 3): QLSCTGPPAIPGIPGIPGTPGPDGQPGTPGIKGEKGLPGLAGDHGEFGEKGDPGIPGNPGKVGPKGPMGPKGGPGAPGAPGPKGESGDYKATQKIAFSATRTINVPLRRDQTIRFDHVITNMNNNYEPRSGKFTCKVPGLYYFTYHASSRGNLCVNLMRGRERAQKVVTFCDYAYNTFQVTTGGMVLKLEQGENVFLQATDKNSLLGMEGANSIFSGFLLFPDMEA
Complement C1q, sequence (P02747 29-245, chain 3 of 3): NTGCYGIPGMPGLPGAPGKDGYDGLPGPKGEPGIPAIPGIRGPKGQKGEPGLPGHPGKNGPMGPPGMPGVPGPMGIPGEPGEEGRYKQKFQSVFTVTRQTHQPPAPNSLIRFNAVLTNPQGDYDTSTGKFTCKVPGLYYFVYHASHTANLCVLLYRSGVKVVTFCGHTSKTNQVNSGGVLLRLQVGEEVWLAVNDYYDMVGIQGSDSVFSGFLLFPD

In series [2] the target is T1, Complement C5. Briefly: inhibition; inhibition of C5a release, zymosan-treated human serum. Particulars: tags: Quidel. Here is the method: Nucleic Acid Ligand-C5 interaction that inhibits cleavage of C5 would prevent formation of the C5b and MAC assembly. […] For this experiment, dilutions of clone C6 were incubated with whole human serum in GVB⁺⁺ (veronal-buffered saline containing calcium, magnesium and 1% gelatin) plus addition of zymosan for 30 minutes at 37° C. The samples were then quenched with EDTA-buffer and spun, and supernatants were assayed for C5a by radioimrnmunoassay (RIA) (Wagner and Hugli (1984) Anal. Biochem. 136:75).

Series [3] addresses T1, Complement C5. Briefly: filter; MgPBS 37C. Particulars: tags: Quidel. Here is the method: as §1
Sequences were grouped according to homology and function.

Turning to GACGAUGCGGUCUCAUGCGUCGAGUGUGAGUUUACCUUCGUC (ssRNA, 2'-F pyrimidines) [C6 42mer truncate], the binding result in the series with Complement C5 [1] was “binds”.

B1: C1q clone 23 (ssRNA)
RNA: GGGAGGACGAUGCGGCACUCACCUUCAUAUUGGCCGCCAUCCCCAGGGUUGAGCCCAGACACAGCAGACGACUCGCCCGA
modifications: 2'-NH2 pyrimidines
What is called Kd is the equilibrium constant for the complex coming apart. In the series with Complement C1q, B1 gave a Kd of 23 nM.

B2: C6 (ssRNA)
RNA: GGGAGGACGAUGCGGUCUCAUGCGUCGAGUGUGAGUUUACCUUCGUCAGACGACUCGCCCGA
modifications: 2'-F pyrimidines
Usually Ki stands for a dissociation constant, usually derived from enzyme kinetics or from competition with a known ligand. Lower therefore signals tighter binding. The molecule B2 yielded an inhibitory constant (Ki) in the series with Complement C5 [2] of around 100 nM. In addition, in the series with Complement C5 [3], the Kd is 30 nM.
